Measurements from paper PMC7744066.

Molecular target: Aldob (aldolase B) (UniProt P05062)
Assay: anti-Flag (Aldob) co-IP, Myc-Akt1 blot
Conditions: reference: Myc-Akt1 wild type

| binding against the reference (sites T308) | binding against the reference (sites S473) | Substance |
| --- | --- | --- |
| weaker | – | Akt1 (from UniProt P31749) Myc-Akt1 T308A |
| – | weaker | Akt1 (from UniProt P31749) Myc-Akt1 S473A |
